Consider two molecules from article PMC4827770 (Journal of molecular recognition : JMR, 2008).

Experiment [1] concerns the target T1, murine JAM-A on L929 (L) cells (murine (endogenous in L929 cells), UniProt O88792 27-300).
T1 sequence (looked up): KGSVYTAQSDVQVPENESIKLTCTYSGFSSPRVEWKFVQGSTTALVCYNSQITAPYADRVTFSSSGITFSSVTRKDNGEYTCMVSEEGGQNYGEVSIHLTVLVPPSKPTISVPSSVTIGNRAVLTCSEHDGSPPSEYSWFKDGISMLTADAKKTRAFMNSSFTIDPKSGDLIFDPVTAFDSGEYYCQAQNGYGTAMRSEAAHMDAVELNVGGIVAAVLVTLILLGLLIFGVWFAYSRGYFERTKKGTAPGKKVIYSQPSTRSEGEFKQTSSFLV
Briefly: single molecule force spectroscopy.

Experiment [2] has as its target T1, murine JAM-A on L929 (L) cells. Description: single molecule force spectroscopy. The source holds these as a separate data set.

Like-named read-outs stand apart in the source and are kept apart here.

B1: reovirus attachment protein σ1 head domain plus a short region of the tail (residues 293–455) (domain or fragment)
chain: SPNLRYPIADVSGGIGMSPNYRFRQSMWIGIVSYSGSGLNWRVQVNSDIFIVDDYIHICLPAFDGFSIADGGDLSLNFVTGLLPPLLTGDTEPAFHNDVVTYGAQTVAIGLSSGGAPQYMSKNLWVEQWQDGVLRLRVEGGGSITHSNSKWPAMTVSYPRSFT
In the case of B1, the koff (usually the first-order rate constant of dissociation) in experiment [1] turned out to be 0.067 ± 0.041 s⁻¹.

B2: chimeric murine JAM-A/Fc fusion protein (Fc fusion)
chain: KGSVYTAQSDVQVPENESIKLTCTYSGFSSPRVEWKFVQGSTTALVCYNSQITAPYADRVTFSSSGITFSSVTRKDNGEYTCMVSEEGGQNYGEVSIHLTVLVPPSKPTISVPSSVTIGNRAVLTCSEHDGSPPSEYSWFKDGISMLTADAKKTRAFMNSSFTIDPKSGDLIFDPVTAFDSGEYYCQAQNGYGTAMRSEAAHMDAVELNVGG
In experiment [2], B2 had a koff of 0.688 ± 0.349 s⁻¹.
